Reference: US20110160280
Substitutions are numbered along the chain they refer to.

Key:
[1] = target: GST-tagged partial EGFR fragment #3 (codons 1046-1186) (UniProt P00533)
[2] = target: active recombinant EGFR (Millipore) (UniProt P00533)
[3] = system: active recombinant MET (Millipore)
[4] = system: T1, WDHD1 S374A immunoprecipitant
T1 sequence: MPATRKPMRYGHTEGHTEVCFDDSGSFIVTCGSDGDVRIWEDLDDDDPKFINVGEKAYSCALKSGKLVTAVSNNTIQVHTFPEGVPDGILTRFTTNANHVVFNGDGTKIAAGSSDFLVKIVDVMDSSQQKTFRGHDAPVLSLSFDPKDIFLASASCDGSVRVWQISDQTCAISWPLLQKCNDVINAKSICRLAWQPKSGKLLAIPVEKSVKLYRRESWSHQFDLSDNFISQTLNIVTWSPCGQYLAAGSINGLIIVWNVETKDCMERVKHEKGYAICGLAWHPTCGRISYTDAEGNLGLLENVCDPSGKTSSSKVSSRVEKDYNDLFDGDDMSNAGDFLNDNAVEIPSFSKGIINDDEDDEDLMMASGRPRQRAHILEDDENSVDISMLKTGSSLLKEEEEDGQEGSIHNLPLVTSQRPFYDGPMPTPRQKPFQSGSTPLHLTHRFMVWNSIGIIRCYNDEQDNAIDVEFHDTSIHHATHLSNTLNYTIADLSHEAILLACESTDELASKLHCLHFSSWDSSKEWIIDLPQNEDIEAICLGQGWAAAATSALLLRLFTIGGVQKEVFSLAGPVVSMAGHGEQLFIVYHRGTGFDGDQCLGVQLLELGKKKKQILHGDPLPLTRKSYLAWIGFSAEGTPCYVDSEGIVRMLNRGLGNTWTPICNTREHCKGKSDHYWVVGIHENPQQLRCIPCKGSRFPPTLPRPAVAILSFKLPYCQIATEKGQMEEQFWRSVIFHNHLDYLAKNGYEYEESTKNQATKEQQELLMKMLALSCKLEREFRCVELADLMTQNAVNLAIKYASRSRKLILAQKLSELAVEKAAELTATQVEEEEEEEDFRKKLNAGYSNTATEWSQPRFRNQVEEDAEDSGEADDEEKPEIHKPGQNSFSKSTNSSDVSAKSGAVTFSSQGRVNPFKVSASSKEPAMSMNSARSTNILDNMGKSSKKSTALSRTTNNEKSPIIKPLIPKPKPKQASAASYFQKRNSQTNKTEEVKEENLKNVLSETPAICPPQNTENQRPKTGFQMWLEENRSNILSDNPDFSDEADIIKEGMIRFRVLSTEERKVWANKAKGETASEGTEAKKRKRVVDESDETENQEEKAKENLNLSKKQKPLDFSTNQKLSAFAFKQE

[5] = system: T2, WDHD1 immunoprecipitant, wild type (c-Myc-tagged WDHD1, pcDNA3.1/myc-His-WDHD1)
T2 sequence: T1 sequence with A374S

Chain of active recombinant EPHA7 (Carnabioscience) (chain, as listed by the source): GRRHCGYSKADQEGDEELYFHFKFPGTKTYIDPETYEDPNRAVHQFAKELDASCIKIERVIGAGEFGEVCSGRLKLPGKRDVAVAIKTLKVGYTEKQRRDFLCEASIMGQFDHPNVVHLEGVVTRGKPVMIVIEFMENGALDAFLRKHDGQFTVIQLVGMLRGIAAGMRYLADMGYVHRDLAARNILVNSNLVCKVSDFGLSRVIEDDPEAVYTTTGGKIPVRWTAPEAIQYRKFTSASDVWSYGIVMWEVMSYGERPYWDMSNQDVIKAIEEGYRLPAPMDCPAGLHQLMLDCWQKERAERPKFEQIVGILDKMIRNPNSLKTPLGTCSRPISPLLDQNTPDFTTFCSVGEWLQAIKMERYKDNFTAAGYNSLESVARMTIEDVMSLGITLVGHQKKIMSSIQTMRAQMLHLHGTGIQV
Chain of active recombinant MET (Millipore) (chain, as listed by the source): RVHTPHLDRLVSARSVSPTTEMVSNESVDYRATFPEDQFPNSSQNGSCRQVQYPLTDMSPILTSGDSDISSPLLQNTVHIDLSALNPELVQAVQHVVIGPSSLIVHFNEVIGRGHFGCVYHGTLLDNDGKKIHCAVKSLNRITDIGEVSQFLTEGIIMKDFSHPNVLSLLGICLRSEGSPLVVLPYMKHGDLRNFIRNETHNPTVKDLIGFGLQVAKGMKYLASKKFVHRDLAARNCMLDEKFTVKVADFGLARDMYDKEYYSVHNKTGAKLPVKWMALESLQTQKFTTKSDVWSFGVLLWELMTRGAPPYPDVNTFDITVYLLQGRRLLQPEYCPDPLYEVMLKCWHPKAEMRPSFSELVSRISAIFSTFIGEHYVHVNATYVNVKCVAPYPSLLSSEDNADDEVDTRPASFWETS

Substance | in vitro kinase assay (phosphorylation of partial EGFR fragment) [1] | in vitro kinase assay (phosphorylation of EGFR) [2] | in vitro kinase assay (level of EPHA7 phosphorylation) [3] | in vitro kinase assay (phosphorylation of MET) [3] | in vitro kinase assay, immunoblot with PAS antibody [4] | in vitro kinase assay, immunoblot with PAS antibody [5]
active recombinant EPHA7 (Carnabioscience) | phosphorylated tyrosine residues on cytoplasmic EGFR could be present in COOH-terminal portion (codons 1046-1186) | EPHA7 could directly phosphorylate EGFR under the existence of EGFR kinase inhibitor that had diminished autophosphorylation of EGFR | the level of EPHA7 phosphorylation was markedly elevated when MET was co-incubated in the presence MET kinase inhibitor | EPHA7 could directly phosphorylate MET | – | –
recombinant human AKT1 (rhAKT1; Invitrogen) | – | – | – | – | clearly indicated the reduced levels of WDHD1 phosphorylation in cells transfected with S374A mutant | proved the direct phosphorylation of WDHD1 by AKT
